Assay [1] concerns the target T cell immunoglobulin domain and mucin domain 3 (TIM-3) (human) (UniProt Q8TDQ0). Put plainly: cell-based or functional assay.
For assay [2], the target named is T1, human CEACAM6 (carcinoembryonic antigen-related cell adhesion molecule 6) (human, UniProt P40199 35-320).
T1 sequence (looked up): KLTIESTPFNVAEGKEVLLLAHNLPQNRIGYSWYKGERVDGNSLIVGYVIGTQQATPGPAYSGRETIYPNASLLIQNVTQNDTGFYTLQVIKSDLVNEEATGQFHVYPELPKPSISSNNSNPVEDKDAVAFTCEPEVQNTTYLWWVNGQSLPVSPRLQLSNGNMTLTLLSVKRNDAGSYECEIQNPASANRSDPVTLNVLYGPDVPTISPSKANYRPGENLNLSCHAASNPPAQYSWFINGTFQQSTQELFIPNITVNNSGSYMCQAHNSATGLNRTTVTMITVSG
Briefly: cell-based or functional assay.

Experimental findings from patent publication US20220089721A1 (Bayer, published 2022) are described below.

In the case of “MAB2365 (rIgG2, R&D Jackson Immunoresearch), anti-TIM3 antibody”, in assay [1], the IFN-γ in pg/ml, absolute mean, TC + HCC + 0.5 µg/ml FLU pep + 50 µg/ml antibody (isotype Mab006: 735.0) amounted to 925 pg/mL; the IFNg [pg/ml], isotype corrected, FluM1 T cells + HCC2935, single agent 50 µg/ml, experiment 1 is 65 pg/mL; the IFNg [pg/ml], isotype corrected, FluM1 T cells + HCC2935, single agent 50 µg/ml, experiment 2 is 67.7 pg/mL; the IFNg [pg/ml], isotype corrected, FluM1 T cells + HCC2935, single agent 50 µg/ml, experiment 3 was 37 pg/mL. For the same molecule, in assay [1], the IFNg [pg/ml], isotype corrected, FluM1 T cells + HCC2935, single agent 50 µg/ml, experiment 4 was 247 pg/mL; the IFNg [pg/ml], isotype corrected, FluM1 T cells + HCC2935, single agent 50 µg/ml, experiment 5 came to 287 pg/mL; the IFNg [pg/ml], isotype corrected, FluM1 T cells + HCC2935, single agent 50 µg/ml, experiment 6 is 288 pg/mL; the IFNg [pg/ml], isotype corrected, FluM1 T cells + HCC2935, single agent 50 µg/ml, experiment 7 was found to be 278 pg/mL. Moreover, in assay [1], the IFNg [pg/ml], isotype corrected, FluM1 T cells + HCC2935, single agent 50 µg/ml, mean of n = 7 was determined as 182 pg/mL; the Mean IFNg (pg/ml), isotype corrected, survivin-peptide specific T cells + HCC2935 lung cells, single agent 50 µg/ml, n = 1 turned out to be 63.6 pg/mL; the Mean IFNg (pg/ml), isotype corrected, survivin-peptide specific T cells + KS breast cancer cells, single agent 50 µg/ml, n = 1 stood at 18.3 pg/mL.

B1: anti-CEACAM6 antibody TPP-3310 (antibody, human IgG2, kappa, V domains shown)
VH: QVTLRESGPALVKPTQTLTLTCTFSGFSLSTYGIGVGWIRQPPGKALEWLAHIWWNDNKYYSTSLKTRLTISKDTSKNQVVLTMTNMDPVDTATYYCARISLPYFDYWGQGTTLTVSS
VL: DIQLTQSPSFLSASVGDRVTITCKASQNVGTAVAWYQQKPGKAPKLLIYSASNRYTGVPSRFSGSGSGTEFTLTISSLQPEDFATYYCQQYSSYPLTFGGGTKVEIKR
Regarding B1, in assay [2], the “half-maximal effective concentration (EC50) for activation of T cells in co-culture” value is around 1 µg/mL.
